Results: US20050043264

How the values were obtained:
[1] = target: T1, Drosophila Ena (overexpressed in BG2-c2 cells), Q8T4F7
T1 chain: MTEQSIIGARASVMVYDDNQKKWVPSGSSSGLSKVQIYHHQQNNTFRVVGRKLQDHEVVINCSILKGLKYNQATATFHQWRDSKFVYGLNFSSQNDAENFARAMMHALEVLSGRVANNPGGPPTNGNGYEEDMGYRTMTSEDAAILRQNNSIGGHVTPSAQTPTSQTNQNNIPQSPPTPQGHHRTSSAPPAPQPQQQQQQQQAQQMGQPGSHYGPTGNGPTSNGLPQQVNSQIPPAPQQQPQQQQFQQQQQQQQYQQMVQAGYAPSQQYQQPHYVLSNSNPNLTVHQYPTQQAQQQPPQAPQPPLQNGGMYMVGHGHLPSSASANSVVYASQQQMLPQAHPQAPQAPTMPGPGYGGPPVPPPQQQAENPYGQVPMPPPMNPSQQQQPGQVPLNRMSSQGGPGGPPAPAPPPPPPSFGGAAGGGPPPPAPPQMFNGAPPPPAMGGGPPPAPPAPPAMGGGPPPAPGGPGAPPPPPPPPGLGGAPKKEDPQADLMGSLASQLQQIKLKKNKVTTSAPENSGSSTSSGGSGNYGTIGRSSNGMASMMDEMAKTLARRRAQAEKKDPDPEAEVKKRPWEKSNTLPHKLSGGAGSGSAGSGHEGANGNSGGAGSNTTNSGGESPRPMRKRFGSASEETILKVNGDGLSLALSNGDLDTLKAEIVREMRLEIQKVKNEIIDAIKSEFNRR

[2] = target: Drosophila Cdk5 (endogenous, BG2-c2 neuronal cells), P48609
Drosophila Cdk5 (endogenous, BG2-c2 neuronal cells), P48609, sequence (P48609 whole entry): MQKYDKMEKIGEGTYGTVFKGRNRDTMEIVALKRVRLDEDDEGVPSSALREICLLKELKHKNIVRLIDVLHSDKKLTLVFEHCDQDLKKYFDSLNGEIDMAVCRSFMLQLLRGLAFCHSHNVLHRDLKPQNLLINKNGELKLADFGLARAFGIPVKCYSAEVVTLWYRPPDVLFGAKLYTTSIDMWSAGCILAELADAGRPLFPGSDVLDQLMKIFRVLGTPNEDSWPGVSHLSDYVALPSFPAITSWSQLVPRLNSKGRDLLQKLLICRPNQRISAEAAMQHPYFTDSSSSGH

B1: Drosophila Abl kinase (endogenous, BG2-c2 neuronal cells) (protein)
chain: MGAQQGKDRGAHSGGGGSGAPVSCIGLSSSPVASVSPHCISSSSGVSSAPLGGGSTLRGSRIKSSSSGVASGSGSGGGGGGSGSGLSQRSGGHKDARCNPTVGLNIFTEHNEALLQSRPLPHIPAGSTAASLLADAAELQQHQQDSGGLGLQGSSLGGGHSSTTSVFESAHRWTSKENLLAPGPEEDDPQLFVALYDFQAGGENQLSLKKGEQVRILSYNKSGEWCEAHSDSGNVGWVPSNYVTPLNSLEKHSWYHGPISRNAAEYLLSSGINGSFLVRESESSPGQRSISLRYEGRVYHYRISEDPDGKVFVTQEAKFNTLAELVHHHSVPHEGHGLITPLLYPAPKQNKPTVFPLSPEPDEWEICRTDIMMKHKLGGGQYGEVYEAVWKRYGNTVAVKTLKEDTMALKDFLEEAAIMKEMKHPNLVQLIGVCTREPPFYIITEFMSHGNLLDFLRSAGRETLDAVALLYMATQIASGMSYLESRNYIHRDLAARNCLVGDNKLVKVADFGLARLMRDDTYTAHAGAKFPIKWTAPEGLAYNKFSTKSDVWAFGVLLWEIATYGMSPYPAIDLTDVYHKLDKGYRMERPPGCPPEVYDLMRQCWQWDATDRPTFKSIHHALEHMFQESSITEAVEKQLNANATSASSSAPSTSGVATGGGATTTTAASGCASSSSATASLSLTPQMVKKGLPGGQALTPNAHHNDPHQQQASTPMSETGSTSTKLSTFSSQGKGNVQMRRTTNKQGKQAPAPPKRTSLLSSSRDSTYREEDPANARCNFIDDLSTNGLARDINSLTQRYDSETDPAADPDTDATGDSLEQSLSQVIAAPVTNKMQHSLHSGGGGGGIGPRSSQQHSSFKRPTGTPVMGNRGLETRQSKRSQLHSQAPGPGPPSTQPHHGNNGVVTSAHPITVGALDVMNVKQVVNRYGTLPKGARIGAYLDSLEDSSEAAPALPATAPSLPPANGHATPPAARLNPKASPIPPQQMIRSNSSGGVTMQNNAAASLNKLQRHRTTTEGTMMTFSSFRAGGSSSSPKRSASGVASGVQPALANLEFPPPPLDLPPPPEEFEGGPPPPPPAPESAVQAIQQHLHAQLPNNGNISNGNGTNNNDSSHNDVSNIAPSVEEASSRFGVSLRKREPSTDSCSSLGSPPEDLKEKLITEIKAAGKDTAPASHLANGSGIAVVDPVSLLVTELAESMNLPKPPPQQQQKLTNGNSTGSGFKAQLKKVEPKKMSAPMPKAEPANTIIDFKAHLRRVDKEKEPATPAPAPATVAVANNANCNTTGTLNRKEDGSKKFSQAMQKTEIKIDVTNSNVEADAGAAGEGDLGKRRSTGSINSLKKLWEQQPPAPDYATSTILQQQPSVVNGGGTPNAQLSPKYGMKSGAINTVGTLPAKLGNKQPPAAPPPPPPNCTTSNSSTTSISTSSRDCTSRQQASSTIKTSHSTQLFTDDEEQSHTEGLGSGGQGSADMTQSLYEQKPQIQQKPAVPHKPTKLTIYATPIAKLTEPASSASSTQISRESILELVGLLEGSLKHPVNAIAGSQWLQLSDKLNILHNSCVIFAENGAMPPHSKFQFRELVTRVEAQSQHLRSAGSKNVQDNERLVAEVGQSLRQISNALNR
Question: For B1, which “tyrosine-phosphorylation level of Ena” value [1] is on record?
Answer: Ena phosphorylation levels were elevated by Aβ42 but reduced by STI571

Question: What about the “Cdk5-Y15 phosphorylation (Cdk5-pY15) and Cdk5 kinase activity after STI571 or dsRNA-abl” value [2] of the same protein?
Answer: both the Cdk5-pY15 and kinase activity were diminished
